Test results as given in patent US20140087995A1 (published 2014).
Values belong to the binder of their own block, whether it stands above or below them. Numbered stars: 1 amine (or outer) side, 2 acyl side, 3 side chain; on linkers, the order of the positions; unused ones are H or OH. Bridge positions count the residues as written; N and C are the ends. Side chains are listed from the residue outwards. Ends that are not written are not given here. * marks the point of attachment. C20 diacid = O=C(O)CCCCCCCCCCCCCCCCCCC(=O)*; γGlu = O=C(O)[C@H](CCC(=O)[*:2])N[*:1]

What was measured:
[1] = molecular target: T1, human amylin receptor (human calcitonin receptor co-expressed with RAMP-3; amylin 3(a) receptor) (human, UniProt P30988 25-474; O60896 24-148, limits assumed); experiment: ratio of hCTR binding IC50 to hAmylin-R binding IC50 (reference: human calcitonin receptor)
T1 construct: whole, on cells; Used as cell membranes prepared from Amylin 3(a)/CRE-luc BHK cells (Assay V), not as intact cells; also called hAmylin-R; hAmylinR
T1 sequence (looked up) 1: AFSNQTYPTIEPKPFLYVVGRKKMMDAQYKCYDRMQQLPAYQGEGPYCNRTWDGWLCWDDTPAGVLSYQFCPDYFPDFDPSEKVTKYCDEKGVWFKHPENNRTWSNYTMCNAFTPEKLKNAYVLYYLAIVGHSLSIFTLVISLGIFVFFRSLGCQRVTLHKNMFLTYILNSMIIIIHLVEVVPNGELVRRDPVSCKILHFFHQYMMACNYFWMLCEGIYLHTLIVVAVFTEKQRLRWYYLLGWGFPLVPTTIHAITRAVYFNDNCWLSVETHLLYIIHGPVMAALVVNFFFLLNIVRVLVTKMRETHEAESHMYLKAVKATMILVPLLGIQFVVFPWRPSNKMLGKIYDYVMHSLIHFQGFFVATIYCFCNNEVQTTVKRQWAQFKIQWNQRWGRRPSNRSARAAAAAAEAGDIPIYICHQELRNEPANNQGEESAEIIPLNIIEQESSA
T1 sequence (looked up) 2: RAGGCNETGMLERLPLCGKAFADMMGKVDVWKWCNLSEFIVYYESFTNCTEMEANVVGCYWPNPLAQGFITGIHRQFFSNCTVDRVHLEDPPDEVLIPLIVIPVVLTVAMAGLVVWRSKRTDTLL
Procedure: The resulting pellet was resuspended, homogenized and centrifuged (20.000 rpm, 15 min) in a buffer containing 20 mM Na-HEPES and 0.1 mM EDTA (pH 7.4, buffer 2). The resulting pellet was resuspended in buffer 2 and protein concentration was measured (BCA protein Assay, Pierce). The homogenate was kept cold during the whole procedure. The membranes were kept at −80° C. until use. The assay was performed in a 384 well Optiplate (PerkinElmer) in a total volume of 40 ul. Membranes were mixed with SPA beads. Final concentration of membranes 35 ng/μL final and SPA beads was 0.05 mg/well. Test-compounds were dissolved in DMSO and further diluted in assay buffer (50 mM Hepes, pH 7.4, 1 mM CaCl2, 5 mM MgCl₂, 0.1% OA and 0.02% Tween20). […] The final mixture was incubated with shaking at 400 rpm for 120 min at 25° C. prior to centrifugation (1500 rpm, 10 min). Samples were analyzed on TopCounter™ (Packard). The IC₅₀ was calculated using (one site binding competition analysis) GraphPad Prism5 as a measure of receptor affinity.
Membranes were prepared in the following way; the cells were rinsed with PBS and incubated with Versene for approximately 5 min before harvesting. The cells were flushed with PBS and the cell-suspension was centrifuged for 5 min at 1000 rpm. Cells were homogenized (Ultrathurrax) in a buffer containing 20 mM Na-HEPES and 10 mM EDTA (pH 7.4) and centrifuged at 20.000 rpm for 15 min. The resulting pellet was resuspended, homogenized and centrifuged (20.000 rpm, 15 min) in a buffer containing 20 mM Na-HEPES and 0.1 mM EDTA (pH 7.4, buffer 2). The resulting pellet was resuspended in buffer 2 and protein concentration was measured (BCA protein Assay, Pierce). The homogenate was kept cold during the whole procedure. The membranes were kept at −80° C. until use. Assay was performed in a 384 well Optiplate (PerkinElmer) in a total volume of 40 ul. Membranes were mixed with SPA beads.

[2] = molecular target: T2, human calcitonin receptor (human, UniProt P30988 25-474); experiment: SPA competition against 125I-calcitonin, membranes with human calcitonin receptor (Assay VII)
T2 construct: whole, on cells; Used as cell membranes prepared from the transfected BHK cells (Assay VII), not as intact cells; also called hCTR; hCT
T2 sequence (looked up): T1 sequence (looked up) 1
Summary of the method: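 BHK hCTR membranes 35 ng/μL + SPA beads 0.05 mg/well; buffer 50 mM Hepes pH 7.4, 1 mM CaCl2, 5 mM MgCl₂, 0.1% OA, 0.02% Tween20. 120 min, 25° C., shaking. Scintillation count; IC50 by one-site binding competition.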

Ratio hCT/hAmylin binding [1]: 157
IC50 [2]: 130 nM
B1: N^ε1-[(4S)-4-carboxy-4-(19-carboxynonadecanoylamino)butanoyl]-[Arg14,Arg17,Pro21,Pro27,Pro31]-h-amylin (peptide)
peptide: K([γGlu-C20 diacid])CNTATCATQRLARFLRHSSPNFGAIPSSTPVGSNTY-NH2
modifications: disulfide 2-7; N-terminus assumed
SMILES: CC[C@H](C)[C@H](NC(=O)[C@H](C)NC(=O)CNC(=O)[C@H](Cc1ccccc1)NC(=O)[C@H](CC(N)=O)NC(=O)[C@@H]1CCCN1C(=O)[C@H](CO)NC(=O)[C@H](CO)NC(=O)[C@H](Cc1c[nH]cn1)NC(=O)[C@H](CCCNC(=N)N)NC(=O)[C@H](CC(C)C)NC(=O)[C@H](Cc1ccccc1)NC(=O)[C@H](CCCNC(=N)N)NC(=O)[C@H](C)NC(=O)[C@H](CC(C)C)NC(=O)[C@H](CCCNC(=N)N)NC(=O)[C@H](CCC(N)=O)NC(=O)[C@@H](NC(=O)[C@H](C)NC(=O)[C@@H]1CSSC[C@H](NC(=O)[C@@H](N)CCCCNC(=O)CC[C@H](NC(=O)CCCCCCCCCCCCCCCCCCC(=O)O)C(=O)O)C(=O)N[C@@H](CC(N)=O)C(=O)N[C@@H]([C@@H](C)O)C(=O)N[C@@H](C)C(=O)N[C@@H]([C@@H](C)O)C(=O)N1)[C@@H](C)O)C(=O)N1CCC[C@H]1C(=O)N[C@@H](CO)C(=O)N[C@@H](CO)C(=O)N[C@H](C(=O)N1CCC[C@H]1C(=O)N[C@H](C(=O)NCC(=O)N[C@@H](CO)C(=O)N[C@@H](CC(N)=O)C(=O)N[C@H](C(=O)N[C@@H](Cc1ccc(O)cc1)C(N)=O)[C@@H](C)O)C(C)C)[C@@H](C)O
notes: also called compound 63

Ratio hCT/hAmylin binding [1]: 82.4
IC50 [2]: 53.5 nM
B2: N^ε1-[(4S)-4-carboxy-4-(19-carboxynonadecanoylamino)butanoyl]-[Arg14,Arg17,Pro21,Pro27,Pro34]-h-amylin (peptide)
peptide: K([γGlu-C20 diacid])CNTATCATQRLARFLRHSSPNFGAIPSSTNVGPNTY-NH2
modifications: disulfide 2-7; N-terminus assumed
SMILES: CC[C@H](C)[C@H](NC(=O)[C@H](C)NC(=O)CNC(=O)[C@H](Cc1ccccc1)NC(=O)[C@H](CC(N)=O)NC(=O)[C@@H]1CCCN1C(=O)[C@H](CO)NC(=O)[C@H](CO)NC(=O)[C@H](Cc1c[nH]cn1)NC(=O)[C@H](CCCNC(=N)N)NC(=O)[C@H](CC(C)C)NC(=O)[C@H](Cc1ccccc1)NC(=O)[C@H](CCCNC(=N)N)NC(=O)[C@H](C)NC(=O)[C@H](CC(C)C)NC(=O)[C@H](CCCNC(=N)N)NC(=O)[C@H](CCC(N)=O)NC(=O)[C@@H](NC(=O)[C@H](C)NC(=O)[C@@H]1CSSC[C@H](NC(=O)[C@@H](N)CCCCNC(=O)CC[C@H](NC(=O)CCCCCCCCCCCCCCCCCCC(=O)O)C(=O)O)C(=O)N[C@@H](CC(N)=O)C(=O)N[C@@H]([C@@H](C)O)C(=O)N[C@@H](C)C(=O)N[C@@H]([C@@H](C)O)C(=O)N1)[C@@H](C)O)C(=O)N1CCC[C@H]1C(=O)N[C@@H](CO)C(=O)N[C@@H](CO)C(=O)N[C@H](C(=O)N[C@@H](CC(N)=O)C(=O)N[C@H](C(=O)NCC(=O)N1CCC[C@H]1C(=O)N[C@@H](CC(N)=O)C(=O)N[C@H](C(=O)N[C@@H](Cc1ccc(O)cc1)C(N)=O)[C@@H](C)O)C(C)C)[C@@H](C)O
notes: also called compound 65
